Read-outs that look alike come from different tables or passages of the source.

These results are taken from patent US20210122788A1 (published 2021).

What all share (assay): FACS binding to EL4 cells
On the technique in general: Flow cytometry measures light scatter and fluorescence of single cells or particles in a stream.

The target in assay [1] is T1, human BTLA, wild-type, on cells (human, UniProt Q7Z6A9 31-289).
In assay [2] the target is T2, human CD160 on cells (human, UniProt O95971 25-159).
T2 chain: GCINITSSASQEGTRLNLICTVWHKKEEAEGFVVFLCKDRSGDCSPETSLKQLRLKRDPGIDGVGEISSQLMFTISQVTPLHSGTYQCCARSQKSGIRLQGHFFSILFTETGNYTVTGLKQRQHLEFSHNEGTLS

Assay [3] addresses T1, human BTLA, wild-type, on cells. The source holds these as a separate data set.
In assay [4] the target is T2, human CD160 on cells.

B1: human HVEM Fc (Fc fusion)
chain: LPSCKEDEYPVGSECCPKCSPGYRVKEACGELTGTVCEPCPPGTYIAHLNGLSKCLQCQMCDPAMGLRASRNCSRTENAVCGCSPGHFCIVQDGDHCAACRAYATSSPGQRVQKGGTESQDTLCQNCPPGTFSPNGTLEECQHQTKCSWLVTKAGAGTSSSHWV
As a reminder, the EC50 is the concentration needed to bring the measured effect to its halfway point. Higher therefore signals lower potency in that assay. Turning to B1, the EC50 was 8.7 µg/mL in assay [1], 5.1 µg/mL in assay [2], 8.7 µg/mL in assay [3] and 5.1 µg/mL in assay [4].
